Assay results published in publication PMC2360559, “Repeated cycles of Clostridium-directed enzyme prodrug therapy result in sustained antitumour effects in vivo” (British Journal of Cancer, 2006).

Test system: NC(=O)c1cc(N2CC2)c([N+](=O)[O-])cc1[N+](=O)[O-]
Test: purified protein
Type: biochemical, Haemophilus influenzae
Details: 100–1000 μM CB 1954, 500 μM NADPH, 37°C, 10 min, product 4HX

“NTR-H; Haemophilus influenzae NfnB; YC78_HAEIN; HinNTR (Haemophilus influenzae Rd KW20)” showed a Km of 690 µM and a kcat of 56.2 s⁻¹.
